{
  "source": "a protein production outcome set (Wang et al. 2014)",
  "data": [
    {"experiment": "label from the status in PepcDB records", "values": [
      {"sequence": "MNTFAIPAPLIDAWRTTLETLRNLTGLGFGLLTRENGGELEIMVTAGELPSPFAEGYCLKGGPEGPLCAVVHTLARSLLIPDTTADARWASNPAVKAGVRAYFGLPLRLPTGALFGTLCLGSMSPVTGHDAVLKPLHCFATLVEQHIALLSTNALLRSQLDALPGASFASDPHGQMLFASNRCGSLLDLHPADIPGSDVDTVFNRIAALCESPEECHAILRRSFTLGGPSNGKLAFDDGRTIRWQARRLREDAGSVLGCTWFLEDATAELQARAGLTRSEALFRGLFNNAAVGIVLLDRQGFVVRSNVACARMLGTSPEQMHGLSFRAVLPPEDADQHLEEMQSLAEGETDELHGCWEMLHRNGSRLRVDLHGARLPGSGEEVVMLVGVDVTEQWRTERALAESERRYRALFDNAQAGIFRTSLADGTFLEANLRMAQMFGYDDVATFMAEYRAAENYVDPADRALMLDRLRTSGSFATMETHMRRRDGTTTWFLYSGTLDGDTIIGVANEISEMRATQEALRRSEERYRALFDNAADGLLLYEADGTLIDVNETIARRLGESREAIVGRNVASIVEPEVLERVRPRLAEILETGHASFESVHRTAMGPVNVEVHARRIEFEGRFVVLSSARDITERKNLEAALLREATTDPLTGGRNRRQFFVDANREFARALRHDSGLAVLMLDIDHFKNVNDLYGHQAGDEVLRAFAACCVEALRAYDVFGRLGGEEFAALLPAASPEEAMETAERLRKRVERRSVVYEGTALQCTVSVGVTSLAAADLGFDDMLRRADRALYAAKDHGRNRSEMAPMPMVPAEIPPPRKPFRE", "protein production": "failed"},
      {"sequence": "MNTKIITILFIAFLSVLFFTGCIEEKISSQEHGSTKGISSSNDENTENRTVTDSLGRQVQVPLMVERVADTWMGHNEVLAMLGADDRLVATMFSPQSRPWMYKVCPTFNDAVTLSPTYDIEELLATKPDVVFMSKSDKNLEKISNLGIPAVQVSFTDFDSMKKCISDTANVLGDEEALERAQQYNTYLDSKLESVRNTSSQIPDENRPKVLHVVSLSPLCVDGGGNIISDWIEAAGGVNAAEEVKGGIMQEVSMEQILKWNPDVIILSVNAKSREKEQIMNSDQWKKVKAIQDNRVFLNPEGAFIWSRAGAEEALQIQWAAKTINPDKFQFIDINNETKWFYKTFFEYELTDEEVQKILNAEAPN", "protein production": "failed"},
      {"sequence": "MNTKKESALSFPSAGIESFGERLKELMGDESLRAFANAIDTSEGGVRKWFTQSTMPSFDKMVRIARRYNVNLEWLCTGEGPKFPGETAAYESVICKTEEFSEEYALIDGYHTQVSTGHGAQWDNERVRRKLAFRSKWLRYRGLQPENLRVVFAKGDSMEPTIHSGDSILVDITDANLSDGSIFVLRIGDDLFAKRVQVHIDGSITIISDNKEYREQRVPVAELGLLSVVGKVVWIGKDVK", "protein production": "failed"},
      {"sequence": "MNTKLTKIISGLFVATAAFQTASAGNITDIKVSSLPNKQKIVKVSFDKEIVNPTGFVTSSPARIALDFEQTGISMDQQVLEYADPLLSKISAAQNSSRARLVLNLNKPGQYNTEVRGNKVWIFINESDDTVSAPARPAVKAAPAAPAKQQAAAPSTKSAVSVSKPFTPAKQQAAAPFTESVVSVSAPFSPAKQQAAASAKQQTAAPAKQQAATPAKQTNIDFRKDGKNAGIIELAALGFAGQPDISQQHDHIIVTLKNHTLPTTLQRSLDVADFKTPVQKVTLKRLNNDTQLIITTAGNWELVNKSAAPGYFTFQVLPKKQNLESGGVNNAPKTFTGRKISLDFQDVEIRTILQILAKESGMNIVASDSVNGKMTLSLKDVPWDQALDLVMQARNLDMRQQGNIVNIAPRDELLAKDKAFLQAEKDIADLGALYSQNFQLKYKNVEEFRSILRLDNADTTGNRNTLVSGRGSVLIDPATNTLIVTDTRSVIEKFRKLIDELDVPAQQVMIEARIVEAADGFSRDLGVKFGATGKKKLKNDTSAFGWGVNSGFGGDDKWGAETKINLPITAAANSISLVRAISSGALNLELSASESLSKTKTLANPRVLTQNRKEAKIESGYEIPFTVTSIANGGSSTNTELKKAVLGLTVTPNITPDGQIIMTVKINKDSPAQCASGNQTILCISTKNLNTQAMVENGGTLIVGGIYEEDNGNTLTKVPLLGDIPVIGNLFKTRGKKTDRRELLIFITPRIMGTAGNSLRY", "protein production": "failed"},
      {"sequence": "MNTNVYENTDSETITPLNKRRILPVFLLVGLYAASTAAVMSVLPFYIREMGGSPLIIGIIIATEAFSQFCAAPLIGHLSDRVGRKRILIVTLAIAAISLLLLANAQCILFILLARTLFGISAGNLSAAAAYIADCTHVRNRRQAIGILTGCIGLGGIVGAGVSGWLSRISLGAPIYAAFILVLGAALVAIWGLKDPSTTSRTTDKIASFSARAILKMPVLRVLIIVMLCHFFAYGMYSSQLPVFLSDTFIWNGLPFGPKALSYLLMADGVINIFVQLFLLGWVSQYFSERKLIILIFALLCTGFLTAGIATTIPVLIFAIVCISIADALAKPTYLAALSVHVSPARQGIVIGTAQALIAIADFISPVLGGFVLGYALYGVWIGIAISVAIIGLVTAMIYLSKSSPLIAKPETE", "protein production": "failed"},
      {"sequence": "MNTPHGPLEYSLNSPFKAKGRFGRLSFAAWSFVSTLAIIGMLLVISVVFGALASDSNAIQIFGSLLLIAIYVTFLVFSVIFIIRRLHDRNHNGWFAILFFIPIINLIFIIYLLCAKGDIETNRFGAPRATPSWERVMGWIYIVLMPIVVILGVSSDAMMAYQRYTLHSKQVSDVSQMIQPVSTHNNRLS", "protein production": "failed"},
      {"sequence": "MNTQEPAGLFTAVYEGDENTVVRLLRAGTAADARDEDGQTALYLAAVSNEPGIVRLLLAAGADPDRLSADADSPLCGAACGGHAEVVRALLAAGATADLEEEFGFRALTWAVQRGQVEILTELLAAGAHPDRPGPTGEAPLVAAARRGSPGCVRALLAHGAGARSPALDEARRWPALDVEAELRAGLEQMYGSGHEMVTHRIPEDGGITVEVQLRTGERTMAGNDQQTGHAAIITLLEAALGIATPVPELADRALRCGDPANDDWTEAVSVLVRRAGGETFTAATAWSRSPDPLRRALGTEILRKLGR", "protein production": "failed"},
      {"sequence": "MNTRAPAVEARQLIKTYPGDVTALSGMDITVEPGTVFGLLGPNGAGKSTTVKILTTLARPDSGTATVAGHDVLRHPDRVRRAIGVVAQSSGADPVATGRENLRLQGRLHGLKGAGLSRRVAELLDRFKLADAAGRQVKGYSGGMRRRLDVALGLVHRPEVLFLDEPTTGLDPEARTAMWDEIARLAGDEGLTILLTTHYLEEADRLAERIAIVDRGRVVVEGTPDGLKGELRGDAIHLELREAVGQAGRTLLKGSLGGVPGVHEVLFDDAQGRRVSVRADDGAAAMPALLGALERAGVGVAAATVARPSLDDVYLRHAGRRYSEAEAEGADSLALAGATGGTRLEHHHHHH", "protein production": "failed"},
      {"sequence": "MNTRLNEPDLPGDIDIKDLDPLVLQDLKVLSKDNADAVAKHMIMAATWLADDPQLALRHARAAKDRAGRVSVVRETNGIAAYHAGEWKEALSELRAARRMSGGPGLIAVMADCERGLGRPEKAIELAREEDLSSLDQDNLIELAIVVAGARHDLGQHDSAIVELQKVNPSLKSTGFTHSRLSYAYADALVLAGRGDEAREWFQHAATLDEDGYLDAEERIEQLDNGNN", "protein production": "failed"},
      {"sequence": "MNTRNFSLPQLQNLPIEEARIVADALAVHATSRQIDSAASKLAALAEAGLKGDRQAYAAYQQLLYVLSLSDDVATAQTRRWLARAIYRVEERFMPAADLSRALSEEDFQKRLEQEIAAQSRERHPMSQYVFSGSASRAQLQVFLRHQWFRTFRLYRDAADLLVNLTDVDEAAALARYLYGELGEEDEKGSHPRLLAKLLEAIGLEADFQAVSTMPEEIAYLNNRARAFRHAEVGWGLAVFYITELVVPGNHEKLYRALLQAGLSEDQAEYYKVHISLVPPRAKREWQLIARRIPDVQFQNAFLTSLSQHFRVERAYYDAIWEEMQSVK", "protein production": "not failed"},
      {"sequence": "MNTYKKIFYFSTILFFYSGFSYAQNINLLLRKGNTCYRKGQYKNAAPYYDQVLKTDPENIQALYKSGVCNLFRYSKEQALINFEKVLQKDSSYDKYLYYWLGRANQLNFNFDQADFFYTAFQQKTSKNKIQYKEADRYKYQLKCARNFVANPANYKIQNLGAAVNSSFSDHSPVVSYTDTLLFFTSRRVTNTEAKEEHDGEPFEDIFYSYRNSTGEWSKPELFHLNTSGHDATIQLFDNDTKIFIYSYLHDGDILLAHKNAGTWSTPVPVKEINSADFESDAFMTADGKTLYYATNHFKKNGDLDICFITKKDDNTWSKPQTLSSLINTDEDEDAPYISADGKTMYFSSRGHTSMGGYDIFKSELDSVTGQWQKPVNLGYPVNTPDEDLYFCLSAKTKRAFMSSYRTGGFGEKDIYEIIPVKNIQLLGSVMKGDTSTPFPNVTMQYIPMAGAMKGAQKTQVNTLADGTYTTELLSDNAYLVYISQGKDTLLKDTLVLPLNEFDHYVYKQLYILNIHDTAAVKDSVIHKVTDTIKTIAAAEIAKTVYFESNRADLNAEAKTELNQLGIYLDTHKEANVYISGHADALGSAAINNALSQKRAQAAAVYLKAKGISAARIKVESFGSEKPVETNATVEGRAKNRRVQIVVK", "protein production": "failed"},
      {"sequence": "MNVIRLKEDKFREALRLSEYAFQYKVDEDRLQQQITKMKESHEVYGIMEGENLAAKLHLIPFHIYIGKEKFKMGGVAGVATYPEYRRSGYVKELLQHSLQTMKKDGYTVSMLHPFAVSFYRKYGWELCANLLVCHMTKSDLVMKKQVNGTVKRFNKESHPEEVEKLYETFAELFSGMLVRNEKWWLQAVYDDLTLAIYYDENQTAAGYMLYKIENYKMTVEEFVPLHNEARNGLWNFICQHDSMIKDLEMTVSENEPLLYTLQEPRVKTEIKPYFMGRIVDVEQFLKQYELNWNNVQQEVILHITDSFAQWNNITVRIANHEITIIEEPIDKGIKLDINALSTILFGYRRPLELNELELISGSEEEIRAFESVVPVRKPFIYDFF", "protein production": "not failed"},
      {"sequence": "MNVLLGSVVIFATFVTLCNASCYFIPNEGVPGDSTRKCMDLKGNKHPINSEWQTDNCETCTCYETEISCCTLVSTPVGYDKDNCQRIFKKEDCKYIVVEKKDPKKTCSVSEWII", "protein production": "not failed"},
      {"sequence": "MNVNKPTTEKKLIDLNNDIIHNFDVSIVMSFYKRYTEFRKVLPHNAPYLQRNGIEVIIVLDDPDEKSELLMLLQNYPFINWKLIINERKHAPRNHASVLNVGLKHATKKYILQIDPEVEFLTDIIWQMRDAIEKYPMHYILAMMAYVPYEQELTENNIKELDFIPWGNLMVERNHLYKLHGYDETFITWGGEDNNMRARLDMSGIKKFILPEAKTIHREKNYDPNERSKRINKHSISDWRKMNYPSEAIANKDIWGSEFNKVIYDWQDNQYAKDLCYTYLQQFIGFEIRHPAAFRKRHKKIVLCQAYNEEKLIEGFLTNMANYFDGIILLDDESTDRTWDLAIHDKIILKVKKKRSGFNDLENRNILLDLSAFFQSEWFCFMDIDERFDERFTNFSEFENNKEIHVVSFRGVYLWNDEQSYKGDIPNSNKGILTVYRMFRPIGHTHINTHKKLHFIATPYFTNTWQSNILFKDYGSMKENDRIRKYERYIQEDQQKDMSSGYDYLLNSENLYQLDKIEEYLEHHHHHH", "protein production": "failed"},
      {"sequence": "MNVSTAELLSWVVKSSYLVAATLFLLGLQRMASPLSARSGIRWAGLGMLIATVATFFLPELHNVPLILAALAIGTGVAWWSAKKVAITDMPQMVALYNGMGGGSAAAIGAVELLRFSFFANRDTAHWSAQAVAELAARQPDTAMVVLAVIGSAIGAVSLSGSIIAWAKLDGRLDRRMTFPGQQAFNLAVAVAVLALAIWAAGSLQPLAIIAFFVVALALGVLMTLPIGGADMPVVISLYNAFTGLAVAFEGYVLGNEALIIAGMMVGAAGILLTRLMAKAMNRPISGVLFSNFGGGGQAQEISGVQKPIEAGDVAAMMAFAERVVIVPGYGMAVAQAQHKIWELAQRLMARGVKVKFAIHPVAGRMPGHMNVLLAEAGVPYDLIADMDDINPEFASTDVSLVIGANDVVNPVAKTDSASPIYGMPILDVVNSRNTVVIKRGKGTGFAGIENALFYADNTRMLYGDGAEAAGALVSELKALDGSGH", "protein production": "failed"},
      {"sequence": "MNVTGKLRGLISFSTVLPLKSEASIEDIASLTLHWPLVGALIGVAVGSAGVAASLVFPGAVVACVAYGFAIWFTGFHHLDGLIDMGDALMSHGSFERKIEIMRDPRIGTGGLGLLLIVSSTTIAAIYSLPQGVLFQGLLIGEVSAKVCLTGCARVSRPLDGGTGRHFIMASRSPFTGMVWIFWAVAAYLLAGVPGAVSVAVAVLSGVFIGLVARRNFYWSTGDVLGASNEVGRMMSLLGLLAAIRLTGL", "protein production": "failed"}
    ]}
  ]
}
